Laboratory results: patent US20200115430A1 (I2O THERAPEUTICS, published 2020)
Starred links: 1 amine or outer side, 2 acyl side, 3 side chain; linkers in the order of their positions; H or OH if unused. Positions of bridges follow the written chain, without caps; N, C: chain ends. Groups on a side chain read outwards from the residue. Primed or numbered codes have the meaning given here. No end group written: not given here. *: point of attachment. dpeg″ = —[CO(CH2)O(CH2)2O(CH2)NH]— spacer unit, O=C(COCCOCN[*:1])[*:2]; C20 diacid = O=C(O)CCCCCCCCCCCCCCCCCCC(=O)*; C18 diacid = O=C(O)CCCCCCCCCCCCCCCCC(=O)*; C17 diacid = O=C(O)CCCCCCCCCCCCCCCC(=O)*; C16 diacid = O=C(O)CCCCCCCCCCCCCCC(=O)*; γGlu = O=C(O)[C@H](CCC(=O)[*:2])N[*:1]

B1: Compound A64 (peptide)
peptide: K([γGlu-γGlu-C20 diacid])CNTSTCATQRLANELHKSSNNFGPILPPTKVGSETY-NH2
modifications: disulfide 2-7; N-terminus assumed
SMILES: CC[C@H](C)[C@H](NC(=O)[C@@H]1CCCN1C(=O)CNC(=O)[C@H](Cc1ccccc1)NC(=O)[C@H](CC(N)=O)NC(=O)[C@H](CC(N)=O)NC(=O)[C@H](CO)NC(=O)[C@H](CO)NC(=O)[C@H](CCCCN)NC(=O)[C@H](Cc1c[nH]cn1)NC(=O)[C@H](CC(C)C)NC(=O)[C@H](CCC(=O)O)NC(=O)[C@H](CC(N)=O)NC(=O)[C@H](C)NC(=O)[C@H](CC(C)C)NC(=O)[C@H](CCCNC(=N)N)NC(=O)[C@H](CCC(N)=O)NC(=O)[C@@H](NC(=O)[C@H](C)NC(=O)[C@@H]1CSSC[C@H](NC(=O)[C@@H](N)CCCCNC(=O)CC[C@H](NC(=O)CC[C@H](NC(=O)CCCCCCCCCCCCCCCCCCC(=O)O)C(=O)O)C(=O)O)C(=O)N[C@@H](CC(N)=O)C(=O)N[C@@H]([C@@H](C)O)C(=O)N[C@@H](CO)C(=O)N[C@@H]([C@@H](C)O)C(=O)N1)[C@@H](C)O)C(=O)N[C@@H](CC(C)C)C(=O)N1CCC[C@H]1C(=O)N1CCC[C@H]1C(=O)N[C@H](C(=O)N[C@@H](CCCCN)C(=O)N[C@H](C(=O)NCC(=O)N[C@@H](CO)C(=O)N[C@@H](CCC(=O)O)C(=O)N[C@H](C(=O)N[C@@H](Cc1ccc(O)cc1)C(N)=O)[C@@H](C)O)C(C)C)[C@@H](C)O
B2: Compound A112 (peptide)
peptide: K([γGlu-γGlu-dpeg″-dpeg″-γGlu-C20 diacid])CNTSTCATQRLANELHKSSNNFGPILPPTKVGSETY-NH2
modifications: disulfide 2-7
B3: Compound A5 (peptide)
peptide: SCNTSTCATQRLANEKHKSSNNFGPILPPTKVGSETY
modifications: L-Lys 16 acylated: K*(γGlu-dpeg-dpeg-(γGlu)4-CO(CH2)14CH3); disulfide bridge Cys2-Cys7; C-terminal amide
B4: Compound A65 (peptide)
peptide: K([γGlu-γGlu-C18 diacid])CNTSTCATQRLANELHKSSNNFGPILPPTKVGSETY-NH2
modifications: disulfide 2-7; N-terminus assumed
SMILES: CC[C@H](C)[C@H](NC(=O)[C@@H]1CCCN1C(=O)CNC(=O)[C@H](Cc1ccccc1)NC(=O)[C@H](CC(N)=O)NC(=O)[C@H](CC(N)=O)NC(=O)[C@H](CO)NC(=O)[C@H](CO)NC(=O)[C@H](CCCCN)NC(=O)[C@H](Cc1c[nH]cn1)NC(=O)[C@H](CC(C)C)NC(=O)[C@H](CCC(=O)O)NC(=O)[C@H](CC(N)=O)NC(=O)[C@H](C)NC(=O)[C@H](CC(C)C)NC(=O)[C@H](CCCNC(=N)N)NC(=O)[C@H](CCC(N)=O)NC(=O)[C@@H](NC(=O)[C@H](C)NC(=O)[C@@H]1CSSC[C@H](NC(=O)[C@@H](N)CCCCNC(=O)CC[C@H](NC(=O)CC[C@H](NC(=O)CCCCCCCCCCCCCCCCC(=O)O)C(=O)O)C(=O)O)C(=O)N[C@@H](CC(N)=O)C(=O)N[C@@H]([C@@H](C)O)C(=O)N[C@@H](CO)C(=O)N[C@@H]([C@@H](C)O)C(=O)N1)[C@@H](C)O)C(=O)N[C@@H](CC(C)C)C(=O)N1CCC[C@H]1C(=O)N1CCC[C@H]1C(=O)N[C@H](C(=O)N[C@@H](CCCCN)C(=O)N[C@H](C(=O)NCC(=O)N[C@@H](CO)C(=O)N[C@@H](CCC(=O)O)C(=O)N[C@H](C(=O)N[C@@H](Cc1ccc(O)cc1)C(N)=O)[C@@H](C)O)C(C)C)[C@@H](C)O
B5: Compound A79 (peptide)
peptide: SCNTSTCATQRLANEK(C17 diacid)HKSSNNFGPILPPTKVGSETY-NH2
modifications: disulfide 2-7; N-terminus assumed
SMILES: CC[C@H](C)[C@H](NC(=O)[C@@H]1CCCN1C(=O)CNC(=O)[C@H](Cc1ccccc1)NC(=O)[C@H](CC(N)=O)NC(=O)[C@H](CC(N)=O)NC(=O)[C@H](CO)NC(=O)[C@H](CO)NC(=O)[C@H](CCCCN)NC(=O)[C@H](Cc1c[nH]cn1)NC(=O)[C@H](CCCCNC(=O)CCCCCCCCCCCCCCCC(=O)O)NC(=O)[C@H](CCC(=O)O)NC(=O)[C@H](CC(N)=O)NC(=O)[C@H](C)NC(=O)[C@H](CC(C)C)NC(=O)[C@H](CCCNC(=N)N)NC(=O)[C@H](CCC(N)=O)NC(=O)[C@@H](NC(=O)[C@H](C)NC(=O)[C@@H]1CSSC[C@H](NC(=O)[C@@H](N)CO)C(=O)N[C@@H](CC(N)=O)C(=O)N[C@@H]([C@@H](C)O)C(=O)N[C@@H](CO)C(=O)N[C@@H]([C@@H](C)O)C(=O)N1)[C@@H](C)O)C(=O)N[C@@H](CC(C)C)C(=O)N1CCC[C@H]1C(=O)N1CCC[C@H]1C(=O)N[C@H](C(=O)N[C@@H](CCCCN)C(=O)N[C@H](C(=O)NCC(=O)N[C@@H](CO)C(=O)N[C@@H](CCC(=O)O)C(=O)N[C@H](C(=O)N[C@@H](Cc1ccc(O)cc1)C(N)=O)[C@@H](C)O)C(C)C)[C@@H](C)O
B6: Compound A75 (peptide)
peptide: SCNTSTCATQRLANEK(C20 diacid)HKSSNNFGPILPPTKVGSETY-NH2
modifications: disulfide 2-7; N-terminus assumed
SMILES: CC[C@H](C)[C@H](NC(=O)[C@@H]1CCCN1C(=O)CNC(=O)[C@H](Cc1ccccc1)NC(=O)[C@H](CC(N)=O)NC(=O)[C@H](CC(N)=O)NC(=O)[C@H](CO)NC(=O)[C@H](CO)NC(=O)[C@H](CCCCN)NC(=O)[C@H](Cc1c[nH]cn1)NC(=O)[C@H](CCCCNC(=O)CCCCCCCCCCCCCCCCCCC(=O)O)NC(=O)[C@H](CCC(=O)O)NC(=O)[C@H](CC(N)=O)NC(=O)[C@H](C)NC(=O)[C@H](CC(C)C)NC(=O)[C@H](CCCNC(=N)N)NC(=O)[C@H](CCC(N)=O)NC(=O)[C@@H](NC(=O)[C@H](C)NC(=O)[C@@H]1CSSC[C@H](NC(=O)[C@@H](N)CO)C(=O)N[C@@H](CC(N)=O)C(=O)N[C@@H]([C@@H](C)O)C(=O)N[C@@H](CO)C(=O)N[C@@H]([C@@H](C)O)C(=O)N1)[C@@H](C)O)C(=O)N[C@@H](CC(C)C)C(=O)N1CCC[C@H]1C(=O)N1CCC[C@H]1C(=O)N[C@H](C(=O)N[C@@H](CCCCN)C(=O)N[C@H](C(=O)NCC(=O)N[C@@H](CO)C(=O)N[C@@H](CCC(=O)O)C(=O)N[C@H](C(=O)N[C@@H](Cc1ccc(O)cc1)C(N)=O)[C@@H](C)O)C(C)C)[C@@H](C)O
B7: Compound A88 (peptide)
peptide: SCNTSTCATQRLANEK([γGlu-C16 diacid])HKSSNNFGPILPPTKVGSETY-NH2
modifications: disulfide 2-7; N-terminus assumed
SMILES: CC[C@H](C)[C@H](NC(=O)[C@@H]1CCCN1C(=O)CNC(=O)[C@H](Cc1ccccc1)NC(=O)[C@H](CC(N)=O)NC(=O)[C@H](CC(N)=O)NC(=O)[C@H](CO)NC(=O)[C@H](CO)NC(=O)[C@H](CCCCN)NC(=O)[C@H](Cc1c[nH]cn1)NC(=O)[C@H](CCCCNC(=O)CC[C@H](NC(=O)CCCCCCCCCCCCCCC(=O)O)C(=O)O)NC(=O)[C@H](CCC(=O)O)NC(=O)[C@H](CC(N)=O)NC(=O)[C@H](C)NC(=O)[C@H](CC(C)C)NC(=O)[C@H](CCCNC(=N)N)NC(=O)[C@H](CCC(N)=O)NC(=O)[C@@H](NC(=O)[C@H](C)NC(=O)[C@@H]1CSSC[C@H](NC(=O)[C@@H](N)CO)C(=O)N[C@@H](CC(N)=O)C(=O)N[C@@H]([C@@H](C)O)C(=O)N[C@@H](CO)C(=O)N[C@@H]([C@@H](C)O)C(=O)N1)[C@@H](C)O)C(=O)N[C@@H](CC(C)C)C(=O)N1CCC[C@H]1C(=O)N1CCC[C@H]1C(=O)N[C@H](C(=O)N[C@@H](CCCCN)C(=O)N[C@H](C(=O)NCC(=O)N[C@@H](CO)C(=O)N[C@@H](CCC(=O)O)C(=O)N[C@H](C(=O)N[C@@H](Cc1ccc(O)cc1)C(N)=O)[C@@H](C)O)C(C)C)[C@@H](C)O

Legend:
[1] = target: T1, human amylin 3 receptor (human, UniProt P30988 25-474; O60896 24-148); experiment: cell-based or functional assay
T1 sequence (looked up) 1: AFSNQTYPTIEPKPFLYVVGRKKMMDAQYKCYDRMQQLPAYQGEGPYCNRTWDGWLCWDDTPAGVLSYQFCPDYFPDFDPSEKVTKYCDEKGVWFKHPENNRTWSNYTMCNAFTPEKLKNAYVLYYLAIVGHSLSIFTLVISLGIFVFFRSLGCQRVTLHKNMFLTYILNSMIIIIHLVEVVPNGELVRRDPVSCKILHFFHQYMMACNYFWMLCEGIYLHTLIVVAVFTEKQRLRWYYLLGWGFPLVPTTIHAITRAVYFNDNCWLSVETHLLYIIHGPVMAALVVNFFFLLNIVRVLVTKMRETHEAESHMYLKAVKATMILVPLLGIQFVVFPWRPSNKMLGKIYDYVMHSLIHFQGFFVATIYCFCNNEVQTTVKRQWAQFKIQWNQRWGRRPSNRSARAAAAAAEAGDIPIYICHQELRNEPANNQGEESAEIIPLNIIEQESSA
T1 sequence (looked up) 2: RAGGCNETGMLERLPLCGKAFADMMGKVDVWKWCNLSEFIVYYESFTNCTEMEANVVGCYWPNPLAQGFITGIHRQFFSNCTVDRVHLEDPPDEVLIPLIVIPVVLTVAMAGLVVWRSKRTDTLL

[2] = target: T2, human calcitonin receptor (human, UniProt P30988 25-474); experiment: cell-based or functional assay
T2 sequence (looked up): T1 sequence (looked up) 1

Binder	pEC50 (cAMP accumulation), 0% HSA [1]	pEC50 (cAMP accumulation), 0.1% HSA [1]	pEC50 (cAMP accumulation), 4% HSA [1]	pEC50 (cAMP accumulation), 0% HSA [2]	pEC50 (cAMP accumulation), 0.1% HSA [2]	pEC50 (cAMP accumulation), 4% HSA [2]
B1	12 pEC50	10.4 pEC50	9.1 pEC50	11.2 pEC50	9 pEC50	8.1 pEC50
B2	11.6 pEC50	9.3 pEC50	8 pEC50	10.9 pEC50	8.5 pEC50	7.5 pEC50
B3	12.3 pEC50	10.8 pEC50	9.2 pEC50	10.8 pEC50	9.5 pEC50	7.8 pEC50
B4	11.5 pEC50	10.1 pEC50	8.7 pEC50	10.5 pEC50	9 pEC50	7.9 pEC50
B5	11.5 pEC50	10.4 pEC50	9.4 pEC50	10.3 pEC50	9.9 pEC50	9.5 pEC50
B6	11.9 pEC50	10.5 pEC50	8.9 pEC50	10.8 pEC50	10 pEC50	7.7 pEC50
B7	10.8 pEC50	10.1 pEC50	8.7 pEC50	9.8 pEC50	9 pEC50	7.8 pEC50
